Results published in PMC9478642 (2022).

B1: human T-plastin, full length, wild type [human] / F-actin (filaments of α-actin) [not stated] (parent complex)
chain 1: MDEMATTQISKDELDELKEAFAKVDLNSNGFICDYELHELFKEANMPLPGYKVREIIQKLMLDGDRNKDGKISFDEFVYIFQEVKSSDIAKTFRKAINRKEGICALGGTSELSSEGTQHSYSEEEKYAFVNWINKALENDPDCRHVIPMNPNTDDLFKAVGDGIVLCKMINLSVPDTIDERAINKKKLTPFIIQENLNLALNSASAIGCHVVNIGAEDLRAGKPHLVLGLLWQIIKIGLFADIELSRNEALAALLRDGETLEELMKLSPEELLLRWANFHLENSGWQKINNFSADIKDSKAYFHLLNQIAPKGQKEGEPRIDINMSGFNETDDLKRAESMLQQADKLGCRQFVTPADVVSGNPKLNLAFVANLFNKYPALTKPENQDIDWTLLEGETREERTFRNWMNSLGVNPHVNHLYADLQDALVILQLYERIKVPVDWSKVNKPPYPKLGANMKKLENCNYAVELGKHPAKFSLVGIGGQDLNDGNQTLTLALVWQLMRRYTLNVLEDLGDGQKANDDIIVNWVNRTLSEAGKSTSIQSFKDKTISSSLAVVDLIDAIQPGCINYDLVKSGNLTEDDKHNNAKYAVSMARRIGARVYALPEDLVEVKPKMVMTVFACLMGRGMKRV
chain 2: not shown

Variants of: B1
Test: sequential low-speed/high-speed F-actin cosedimentation assay; 5 μM actin, 2 μM plastin; read off a plot

response | Variant
~0.77 proportion of T-plastin in low-speed pellet | chain 1 R594A
~0.37 proportion of T-plastin in low-speed pellet | chain 1 W390A
